Data taken from patent US20190062383A1.

Experiments:
[1] = target: human Kv1.1 (human) (UniProt Q09470); test: cell-based or functional assay
[2] = target: human Kv1.3 (human) (UniProt P22001); test: cell-based or functional assay
[3] = target: human Kv1.1 (human) (UniProt Q09470)
[4] = target: human Kv1.3 (human) (UniProt P22001)

Chain of human Kv1.1 (human) (Q09470 whole entry): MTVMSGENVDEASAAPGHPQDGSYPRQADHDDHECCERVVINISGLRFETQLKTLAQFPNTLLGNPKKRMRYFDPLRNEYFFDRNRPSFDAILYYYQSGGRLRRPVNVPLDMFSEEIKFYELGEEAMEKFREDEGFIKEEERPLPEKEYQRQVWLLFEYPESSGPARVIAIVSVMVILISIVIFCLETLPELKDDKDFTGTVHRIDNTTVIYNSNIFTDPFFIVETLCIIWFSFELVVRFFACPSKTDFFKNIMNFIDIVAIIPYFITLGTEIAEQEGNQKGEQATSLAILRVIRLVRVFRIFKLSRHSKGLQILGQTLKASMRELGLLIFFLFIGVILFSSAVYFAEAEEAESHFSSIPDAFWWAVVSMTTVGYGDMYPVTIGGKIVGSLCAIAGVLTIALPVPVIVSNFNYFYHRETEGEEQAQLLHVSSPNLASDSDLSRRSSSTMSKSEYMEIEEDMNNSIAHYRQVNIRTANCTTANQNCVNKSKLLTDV
Chain of human Kv1.3 (human) (P22001 whole entry): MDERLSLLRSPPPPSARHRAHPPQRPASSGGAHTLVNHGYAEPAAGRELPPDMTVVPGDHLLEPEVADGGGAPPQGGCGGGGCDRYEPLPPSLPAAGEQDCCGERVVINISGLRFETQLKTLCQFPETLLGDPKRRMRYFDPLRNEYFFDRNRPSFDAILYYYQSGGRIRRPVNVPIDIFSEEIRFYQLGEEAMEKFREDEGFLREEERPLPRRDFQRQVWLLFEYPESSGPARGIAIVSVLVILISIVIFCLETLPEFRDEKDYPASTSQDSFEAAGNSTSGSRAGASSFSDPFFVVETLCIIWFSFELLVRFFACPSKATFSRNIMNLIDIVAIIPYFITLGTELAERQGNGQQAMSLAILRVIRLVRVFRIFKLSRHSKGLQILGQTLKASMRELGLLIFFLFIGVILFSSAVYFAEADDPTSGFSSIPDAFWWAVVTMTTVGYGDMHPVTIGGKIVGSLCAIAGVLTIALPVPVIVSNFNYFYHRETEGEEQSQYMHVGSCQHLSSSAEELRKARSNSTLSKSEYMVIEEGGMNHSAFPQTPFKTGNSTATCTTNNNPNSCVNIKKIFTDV

wild type OsK1 peptide
Kv1.1 IC50, whole-cell patch clamp [1]: 0.21 nM | CD4+ T cell inhibition IC50 [2]: 0.03 nM | CD8+ T cell inhibition IC50 [2]: 0.03 nM | Kv1.3 IC50, whole-cell patch clamp [2]: 0.01 nM

wild type OdK2 peptide
Kv1.3 IC50, whole-cell patch clamp [2]: 0.1 nM

KV1N2 (OsK1-Fc fusion)
thallium flux KV1.1 IC50 [3]: 0.1 nM | thallium flux KV1.3 IC50 [4]: 0.03 nM | Kv1.1 IC50, patch clamp [1]: 2 nM | Kv1.1 IC50, whole-cell patch clamp [1]: 2 nM | Kv1.3 IC50, patch clamp [2]: 0.3 nM

KV1C2 (OdK2-Fc fusion)
thallium flux KV1.1 IC50 [3]: > 1000 nM
